According to the supplement of paper PMC9112550, “Optimization of the antimicrobial peptide Bac7 by deep mutational scanning” (BMC Biology, 2022):

System: Escherichia coli TOP10
Experiment: shrunken log2 fold change of peptide-encoding DNA abundance (4.5 h post-induction vs induction); higher = less antimicrobial activity (less host growth inhibition)
Settings: time post-induction: 4.5 h; library: site-saturation at positions 5, 18, 19, 20
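Note: peptides expressed intracellularly from a pBAD plasmid library in pooled LB shake-flask culture, induced with 0.3% L-arabinose, DNA abundance read by NGS, three biological replicates, DESeq2 with apeglm shrinkage.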

Row | Sequence | shrunken log2 fold change
1 | RRIRVRPPRLPRPRPRPWVHPRP | -0.306
2 | RRIRERPPRLPRPRPRPRSWPRP | 0.0987
3 | RRIRPRPPRLPRPRPRPHKTPRP | -0.0296
4 | RRIRWRPPRLPRPRPRPHEHPRP | 0.0185
5 | RRIRQRPPRLPRPRPRPIRAPRP | 0.0231
6 | RRIRTRPPRLPRPRPRPINRPRP | 0.028
7 | RRIRQRPPRLPRPRPRPHGMPRP | 0.0346
8 | RRIRLRPPRLPRPRPRPAMGPRP | 0.248
9 | RRIRNRPPRLPRPRPRPQQAPRP | -0.356
10 | RRIRERPPRLPRPRPRPLYNPRP | -0.264
11 | RRIRKRPPRLPRPRPRPLCVPRP | 0.247
12 | RRIRRRPPRLPRPRPRPLNIPRP | -0.651
13 | RRIRFRPPRLPRPRPRPERLPRP | 0.265
14 | RRIRQRPPRLPRPRPRPSKTPRP | -0.0854
15 | RRIRNRPPRLPRPRPRPIYSPRP | -0.0185
16 | RRIRKRPPRLPRPRPRPPNDPRP | 0.426
17 | RRIRVRPPRLPRPRPRPDMEPRP | 0.0238
18 | RRIRQRPPRLPRPRPRPGRKPRP | 0.249
19 | RRIRQRPPRLPRPRPRPMTEPRP | -0.0192
20 | RRIRIRPPRLPRPRPRPLMKPRP | -0.232
21 | RRIRSRPPRLPRPRPRPNWMPRP | -0.0249
22 | RRIRMRPPRLPRPRPRPLQMPRP | 2.29

Row | Sequence | shrunken log2 fold change
23 | RRIRARPPRLPRPRPRPDGDPRP | -0.036
24 | RRIRQRPPRLPRPRPRPLQGPRP | 0.0512
25 | RRIRERPPRLPRPRPRPYHMPRP | -0.021
26 | RRIRWRPPRLPRPRPRPTDDPRP | -0.0402
27 | RRIRFRPPRLPRPRPRPGHGPRP | 0.148
28 | RRIRYRPPRLPRPRPRPQLKPRP | -0.526
29 | RRIRLRPPRLPRPRPRPLISPRP | -0.506
30 | RRIRVRPPRLPRPRPRPCQNPRP | -0.293
31 | RRIRVRPPRLPRPRPRPYWIPRP | -0.163
32 | RRIRKRPPRLPRPRPRPTKIPRP | 0.269
33 | RRIRIRPPRLPRPRPRPYFLPRP | -0.921
34 | RRIRNRPPRLPRPRPRPPHLPRP | 0.155
35 | RRIRFRPPRLPRPRPRPEKSPRP | -0.101
36 | RRIRDRPPRLPRPRPRPPGEPRP | -0.0136
37 | RRIRVRPPRLPRPRPRPEECPRP | 0.0155
38 | RRIRDRPPRLPRPRPRPWSIPRP | -0.105
39 | RRIRLRPPRLPRPRPRPCYCPRP | -0.219
40 | RRIRHRPPRLPRPRPRPHLWPRP | -0.0776
41 | RRIRHRPPRLPRPRPRPAKAPRP | 0.0344
42 | RRIRTRPPRLPRPRPRPPHFPRP | 0.7
43 | RRIRVRPPRLPRPRPRPPNEPRP | 0.345
44 | RRIRIRPPRLPRPRPRPLCMPRP | -0.964

Row | Sequence | shrunken log2 fold change
45 | RRIRSRPPRLPRPRPRPHWYPRP | -0.648
46 | RRIRERPPRLPRPRPRPTLAPRP | 0.269
47 | RRIRHRPPRLPRPRPRPVCHPRP | -0.198
48 | RRIRQRPPRLPRPRPRPAQLPRP | 0.0104
49 | RRIRTRPPRLPRPRPRPYCPPRP | -0.821
50 | RRIRRRPPRLPRPRPRPVISPRP | 0.104
51 | RRIRYRPPRLPRPRPRPAVQPRP | -0.505
52 | RRIRDRPPRLPRPRPRPMLHPRP | 0.202
53 | RRIRYRPPRLPRPRPRPYPPPRP | -0.673
54 | RRIRNRPPRLPRPRPRPFTWPRP | -0.62
55 | RRIRQRPPRLPRPRPRPSKHPRP | -0.641
56 | RRIRHRPPRLPRPRPRPYELPRP | -0.116
57 | RRIRLRPPRLPRPRPRPMPCPRP | -0.12
58 | RRIRDRPPRLPRPRPRPHSIPRP | 0.0345
59 | RRIRSRPPRLPRPRPRPQKMPRP | -0.122
60 | RRIRIRPPRLPRPRPRPTGCPRP | -0.0215
61 | RRIRKRPPRLPRPRPRPGTVPRP | 0.0317
62 | RRIRHRPPRLPRPRPRPHNCPRP | -0.0289
63 | RRIRNRPPRLPRPRPRPPGWPRP | 1.24
64 | RRIRCRPPRLPRPRPRPKGDPRP | -0.0659
65 | RRIRSRPPRLPRPRPRPDHWPRP | -0.0678
66 | RRIRPRPPRLPRPRPRPAFAPRP | 0.374

Row | Sequence | shrunken log2 fold change
67 | RRIRYRPPRLPRPRPRPAQMPRP | 0.0755
68 | RRIRQRPPRLPRPRPRPCWQPRP | -0.0325
69 | RRIRGRPPRLPRPRPRPNAYPRP | 0.426
70 | RRIRWRPPRLPRPRPRPGQRPRP | 0.153
71 | RRIRNRPPRLPRPRPRPSSLPRP | -0.333
72 | RRIRNRPPRLPRPRPRPPVQPRP | 0.0479
73 | RRIRRRPPRLPRPRPRPWCYPRP | -0.439
74 | RRIRIRPPRLPRPRPRPTQRPRP | 0.187
75 | RRIRLRPPRLPRPRPRPWFFPRP | -0.155
76 | RRIRWRPPRLPRPRPRPFCFPRP | 0.449
77 | RRIRWRPPRLPRPRPRPTSLPRP | 0.0239
78 | RRIRERPPRLPRPRPRPIQDPRP | 0.876
79 | RRIRPRPPRLPRPRPRPYANPRP | -0.231
80 | RRIRTRPPRLPRPRPRPVDCPRP | -0.142
81 | RRIRKRPPRLPRPRPRPEFAPRP | 1.03
82 | RRIRARPPRLPRPRPRPCQKPRP | 0.431
83 | RRIRARPPRLPRPRPRPVVNPRP | 0.346
84 | RRIRKRPPRLPRPRPRPAQWPRP | 0.421
85 | RRIRPRPPRLPRPRPRPGTIPRP | -0.171
86 | RRIRCRPPRLPRPRPRPEDMPRP | 0.176
87 | RRIRHRPPRLPRPRPRPDWRPRP | 0.147
88 | RRIRGRPPRLPRPRPRPDMAPRP | 0.882

Row | Sequence | shrunken log2 fold change
89 | RRIRARPPRLPRPRPRPCFAPRP | 0.61
90 | RRIRPRPPRLPRPRPRPESYPRP | -0.00116
91 | RRIRWRPPRLPRPRPRPEWYPRP | 0.0654
92 | RRIRHRPPRLPRPRPRPWRLPRP | -0.0125
93 | RRIRARPPRLPRPRPRPYTWPRP | -0.428
94 | RRIRCRPPRLPRPRPRPKLLPRP | -0.172
95 | RRIRCRPPRLPRPRPRPEPSPRP | 0.146
96 | RRIRGRPPRLPRPRPRPVNRPRP | -0.0382
97 | RRIRDRPPRLPRPRPRPNFSPRP | -0.0622
98 | RRIRERPPRLPRPRPRPRHFPRP | -0.419
99 | RRIRLRPPRLPRPRPRPGILPRP | -0.105
100 | RRIRVRPPRLPRPRPRPMHTPRP | 0.0814
101 | RRIRWRPPRLPRPRPRPFYKPRP | -0.658
102 | RRIRIRPPRLPRPRPRPNFGPRP | -0.0272
103 | RRIRNRPPRLPRPRPRPLRNPRP | 0.267
104 | RRIRCRPPRLPRPRPRPSWDPRP | -0.134
105 | RRIRFRPPRLPRPRPRPIHAPRP | -0.0507
106 | RRIRYRPPRLPRPRPRPWDLPRP | 0.0112
107 | RRIRKRPPRLPRPRPRPWKVPRP | -0.000777
108 | RRIRDRPPRLPRPRPRPFMCPRP | -0.0266
109 | RRIRCRPPRLPRPRPRPGDFPRP | -0.0027
